Consider 6 substances from US20240035012A1.

Where two headings read alike, the source gives them in different places. Bounds are passed on as bounds.

For assay [1], the target named is prefusion stabilized trimeric SARS-CoV-2 spike protein ectodomain (SARS-CoV-2) (UniProt P0DTC2).
Assay [2] has the same target. Nature of the assay: ELISA, S-ECD coated on plate, ACE2 protein titrated, anti-GFP detection.
For assay [3] the target is unchanged. The source holds these as a separate data set.
Assay [4] has the same target. The source holds these as a separate data set.
For assay [5] the target is unchanged. This is another data set of the same source.

In the case of “ACE2-rigid-3HB (from UniProt Q9BYF1 18-615) (receptor)”, the dissociation constant (Kd) in assay [1] was below 0.001 nM. This substance displayed a half-maximal inhibitory concentration (IC50) in assay [2] of 0.03 nM.
Turning to “ACE2-short-foldon (from UniProt Q9BYF1 18-615) (receptor)”, the Kd in assay [1] amounted to 0.53 nM. Further, the IC50 in assay [3] is 0.05 nM.
As for “ACE2-rigid-foldon (from UniProt Q9BYF1 18-615) (receptor)”, in assay [1], the Kd was below 0.001 nM. Also, the IC50 in assay [2] stood at 0.03 nM.
Turning to “ACE2-flexible-3HB (from UniProt Q9BYF1 18-615) (receptor)”, the Kd in assay [4] was determined as 4.4 nM; in assay [1] it was 1.31 nM. In assay [5], this substance gave an IC50 of 0.06 nM.
On to “Monomeric ACE2 (ACE2 (18-615)-(GGGGS)5-HRV3C-eGFP-His8) (from UniProt Q9BYF1 18-615) (receptor)”, for which the Kd in assay [4] amounted to 34 nM. The results for the IC50 in assay [5] and in assay [2] were 26.6 nM and 27 nM, respectively.
With “ACE2-flexible-foldon (from UniProt Q9BYF1 18-615) (receptor)”, the Kd in assay [4] amounted to 0.34 nM; in assay [1], 0.52 nM. The IC50 in assay [5] turned out to be 0.07 nM.

A word on the Kd: it is a measure of binding affinity in units of concentration. Lower therefore signals higher affinity. For orientation: IC50 means the midpoint of a concentration-inhibition curve. A lower IC50 goes with greater potency.
